Source: publication doi:10.1101/2024.06.27.600973
pKd: −log10 of the molar value.

Target: NY-ESO-1 peptide on HLA-A*02:01 (human)
Assay: data from [38–40]

For 1G4, the pKd was 5.00.
